Test results reported in patent publication US20250042994A1.
Values belong to the substance of their own block, whether it stands above or below them.

Legend:
[1] = molecular target: human CD19 on Raji cells (human) (UniProt P15391); assay: FACS on Raji cells
[2] = molecular target: Human CD19-his protein (human) (UniProt P15391); assay: ELISA, antibody at 10 nM
[3] = molecular target: Human CD19-his protein (human) (UniProt P15391); assay: ELISA, antibody at 100 nM
[4] = molecular target: Human CD19-his protein (human) (UniProt P15391); assay: ELISA, antibody at 0.01 nM
[5] = molecular target: Human CD19-his protein (human) (UniProt P15391); assay: ELISA, antibody at 0.10 nM
[6] = molecular target: Human CD19-his protein (human) (UniProt P15391); assay: ELISA, antibody at 1.00 nM
[7] = molecular target: Human CD19-his protein (human) (UniProt P15391); assay: ELISA, antibody at 0.001 nM
[8] = molecular target: Human CD19-his protein (human) (UniProt P15391); assay: ELISA, antibody at 0.0001 nM
[9] = molecular target: human CD19 on CHO-K1-human CD19 cells (human) (UniProt P15391); assay: FACS on CHO-K1-human CD19 cells
Sequence of human CD19 on CHO-K1-human CD19 cells (human) (P15391 20-556): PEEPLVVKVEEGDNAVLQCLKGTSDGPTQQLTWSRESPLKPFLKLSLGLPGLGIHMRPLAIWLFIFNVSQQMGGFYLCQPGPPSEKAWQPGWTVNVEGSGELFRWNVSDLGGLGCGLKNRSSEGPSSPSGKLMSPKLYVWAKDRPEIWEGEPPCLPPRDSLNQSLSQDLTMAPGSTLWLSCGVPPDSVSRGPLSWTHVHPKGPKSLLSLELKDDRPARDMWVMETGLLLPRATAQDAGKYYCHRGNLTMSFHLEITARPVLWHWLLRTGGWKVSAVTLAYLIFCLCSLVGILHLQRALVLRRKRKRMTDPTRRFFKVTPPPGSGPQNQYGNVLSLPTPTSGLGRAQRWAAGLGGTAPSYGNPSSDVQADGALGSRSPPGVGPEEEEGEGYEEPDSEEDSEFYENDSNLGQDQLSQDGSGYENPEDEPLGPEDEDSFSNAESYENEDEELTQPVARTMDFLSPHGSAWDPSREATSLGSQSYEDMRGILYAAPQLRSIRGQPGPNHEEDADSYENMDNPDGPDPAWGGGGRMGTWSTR

[10] = molecular target: monkey CD19 on HEK293T-monkey CD19 cells (monkey); assay: FACS on HEK293T-monkey CD19 cells
[11] = molecular target: cynomolgus monkey CD19 on peripheral blood B cells (cynomolgus monkey (Macaca fascicularis)); assay: FACS, cynomolgus PBMC, CD20+ B cells
[12] = molecular target: Human CD19-his protein (human) (UniProt P15391); assay: ELISA, coated human CD19-His
[13] = molecular target: human CD19 on the surface of cells (human) (UniProt P15391); assay: FACS on Raji cells
Sequence of human CD19 on the surface of cells (human) (P15391 20-556): as above

[14] = molecular target: monkey CD19 on cells (monkey); assay: FACS on HEK293T-monkey CD19
[15] = molecular target: human CD19 on the surface of cells (human) (UniProt P15391); assay: FACS on CHO-K1-human CD19-1C4
[16] = molecular target: human CD19 on the surface of cells (human) (UniProt P15391); assay: FACS on CHO-K1-human CD19-1C9
[17] = molecular target: human CD19 on the surface of cells (human) (UniProt P15391); assay: FACS on CHO-K1-human CD19-2C8
[18] = molecular target: human CD19 on the surface of cells (human) (UniProt P15391); assay: FACS on CHO-K1-human CD19-2G4

Sequence of Human CD19-his protein (human) (P15391 20-291 limits assumed): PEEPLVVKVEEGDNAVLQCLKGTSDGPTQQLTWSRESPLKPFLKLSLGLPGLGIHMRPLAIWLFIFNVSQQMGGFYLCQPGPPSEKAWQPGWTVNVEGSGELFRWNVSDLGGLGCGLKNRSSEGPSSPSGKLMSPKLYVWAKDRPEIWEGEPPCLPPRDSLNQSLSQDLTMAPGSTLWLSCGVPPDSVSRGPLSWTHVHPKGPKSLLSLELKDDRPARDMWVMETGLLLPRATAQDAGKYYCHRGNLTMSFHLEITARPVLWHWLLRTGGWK
Sequence of human CD19 on Raji cells (human) (P15391 20-556): as the sequence (P15391 20-556) above

- Maximum mean fluorescence intensity [1]: 435
- OD450 [2]: 0.05
- OD450 [3]: 0.08
- OD450 [4]: 0.05
- OD450 [5]: 0.05
- OD450 [6]: 0.05
- OD450 [7]: 0.05
- OD450 [8]: 0.04
- Maximum mean fluorescence intensity [9]: 99
- Maximum mean fluorescence intensity [10]: 90
- Proportion of chimeric antibody positive cells to B cells (%) at 1 nM [11]: 1%
- Proportion of chimeric antibody positive cells to B cells (%) at 10 nM [11]: 1%
- Proportion of chimeric antibody positive cells to B cells (%) at 100 nM [11]: 1%
Substance: anti-hel-hIgG1 (antibody)

- Maximum mean fluorescence intensity [1]: 651 MFI
- OD450 at 0.0001 nM [12]: 0.09 OD450
- OD450 at 0.001 nM [12]: 0.08 OD450
- OD450 at 0.01 nM [12]: 0.08 OD450
- OD450 at 0.10 nM [12]: 0.08 OD450
- OD450 at 1.00 nM [12]: 0.08 OD450
- OD450 at 100 nM [12]: 0.17 OD450
- Maximum mean fluorescence intensity [9]: 82 MFI
Substance: anti-hel-mIgG1 (antibody)

- mean fluorescence intensity [13]: 72
- mean fluorescence intensity [14]: 62
- mean fluorescence intensity [15]: 50
- mean fluorescence intensity [16]: 50
- mean fluorescence intensity [17]: 50
- mean fluorescence intensity [18]: 50
Substance: IgG subtype control (antibody)
